Patent US20230322957A1 (ENGMAB SARL, published 2023)

Legend:
Test in all cases: cell-based or functional assay
[1] = target: T1, human BCMA on the cell surface (human, UniProt Q02223 1-184)
T1 sequence (looked up): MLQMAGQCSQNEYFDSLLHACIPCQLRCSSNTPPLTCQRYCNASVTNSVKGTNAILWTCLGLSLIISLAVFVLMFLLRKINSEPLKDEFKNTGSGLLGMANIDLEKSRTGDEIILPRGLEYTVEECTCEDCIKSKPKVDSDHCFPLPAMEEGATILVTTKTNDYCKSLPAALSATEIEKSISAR

[2] = target: T1, human BCMA on the cell surface; remark: listed apart in the source
[3] = target: T1, human BCMA on the cell surface; remark: listed apart in the source
[4] = target: T1, human BCMA on the cell surface; remark: listed apart in the source
[5] = target: T1, human BCMA on the cell surface; remark: listed apart in the source
[6] = target: T1, human BCMA on the cell surface; remark: listed apart in the source
[7] = target: T1, human BCMA on the cell surface; remark: listed apart in the source

B1: 83A10-TCBcv (bispecific antibody, human IgG1, kappa, L234A L235A)
heavy 1: not shown
heavy 2: not shown
light 1: not shown
light 2: EVQLLESGGGLVQPGGSLRLSCAASGFTFSTYAMNWVRQAPGKGLEWVSRIRSKYNNYATYYADSVKGRFTISRDDSKNTLYLQMNSLRAEDTAVYYCVRHGNFGNSYVSWFAYWGQGTLVTVSSASVAAPSVFIFPPSDEQLKSGTASVVCLLNNFYPREAKVQWKVDNALQSGNSQESVTEQDSKDSTYSLSSTLTLSKADYEKHKVYACEVTHQGLSSPVTKSFNRGEC
- Lysis of JJN-3 cells (%) at 0.1 pM, Experiment 2 [1]: 22.3%
- Lysis of JJN-3 cells (%) at 1 pM, Experiment 1 [1]: 24.4%
- Lysis of JJN-3 cells (%) at 1 pM, Experiment 2 [1]: -1.88%
- Lysis of JJN-3 cells (%) at 10 pM, Experiment 1 [1]: 41.9%
- Lysis of JJN-3 cells (%) at 10 pM, Experiment 2 [1]: 39.6%
- Lysis of JJN-3 cells (%) at 100 pM, Experiment 1 [1]: 18.4%
- Lysis of JJN-3 cells (%) at 100 pM, Experiment 2 [1]: 20.1%
- Lysis of JJN-3 cells (%) at 1000 pM, Experiment 1 [1]: 26.7%
- Lysis of JJN-3 cells (%) at 1000 pM, Experiment 2 [1]: 25.3%
- Lysis of JJN-3 cells (%) at 10000 pM, Experiment 1 [1]: 70.3%
- Lysis of JJN-3 cells (%) at 10000 pM, Experiment 2 [1]: 51.2%
- EC50 redirected T-cell killing of H929 cells (LDH release), Donor 1 [2]: 0.0039 nM
- EC50 redirected T-cell killing of H929 cells (LDH release), Donor 3 [2]: 0.0085 nM
- EC50 redirected T-cell killing of H929 cells (LDH release), Donor 4 [2]: 0.005 nM
- EC50 redirected T-cell killing of H929 cells (LDH release), Donor 5 [2]: 0.0043 nM
- EC50 redirected T-cell killing of H929 cells (LDH release), Donor 6 [2]: 0.0015 nM
- Annexin-V positive patient bone marrow myeloma plasma cells (%) at 10 pM [3]: 16.8%
- Annexin-V positive patient bone marrow myeloma plasma cells (%) at 100 pM [3]: 15.7%
- Annexin-V positive patient bone marrow myeloma plasma cells (%) at 1000 pM [3]: 23.1%
- Annexin-V positive patient bone marrow myeloma plasma cells (%) at 10000 pM [3]: 30.9%
- Annexin-V positive patient bone marrow myeloma plasma cells (%) at 30000 pM [3]: 29.3%
- EC50 redirected T-cell killing of L363 cells (LDH release), Donor 1 [4]: 0.0168 nM
- EC50 redirected T-cell killing of L363 cells (LDH release), Donor 2 [4]: 0.0478 nM
- EC50 redirected T-cell killing of L363 cells (LDH release), Donor 3 [4]: 0.0284 nM
- EC50 redirected T-cell killing of L363 cells (LDH release), Donor 4 [4]: 0.0126 nM
- EC50 redirected T-cell killing of L363 cells (LDH release), Donor 5 [4]: 0.039 nM
- Annexin-V positive JJN-3 cells (%) at 0.1 pM, Experiment 2 [5]: 13.1%
- Annexin-V positive JJN-3 cells (%) at 1 pM, Experiment 1 [5]: 11.4%
- Annexin-V positive JJN-3 cells (%) at 1 pM, Experiment 2 [5]: 14.3%
- Annexin-V positive JJN-3 cells (%) at 10 pM, Experiment 1 [5]: 11.1%
- Annexin-V positive JJN-3 cells (%) at 10 pM, Experiment 2 [5]: 15.9%
- Annexin-V positive JJN-3 cells (%) at 100 pM, Experiment 1 [5]: 9.12%
- Annexin-V positive JJN-3 cells (%) at 100 pM, Experiment 2 [5]: 16.5%
- Annexin-V positive JJN-3 cells (%) at 1000 pM, Experiment 1 [5]: 10.2%
- Annexin-V positive JJN-3 cells (%) at 1000 pM, Experiment 2 [5]: 17.5%
- Annexin-V positive JJN-3 cells (%) at 10000 pM, Experiment 1 [5]: 16.8%
- Annexin-V positive JJN-3 cells (%) at 10000 pM, Experiment 2 [5]: 22.9%
- EC50 redirected T-cell killing of RPMI-8226 cells (LDH release), Donor 2 [6]: 0.621 nM
- EC50 redirected T-cell killing of RPMI-8226 cells (LDH release), Donor 3 [6]: 0.229 nM
- EC50 redirected T-cell killing of RPMI-8226 cells (LDH release), Donor 4 [6]: 0.035 nM
- EC50 redirected T-cell killing of RPMI-8226 cells (LDH release), Donor 5 [6]: 0.0649 nM
- Granzyme B secretion EC50, PBMC + RPMI-8226 cells (CBA) [7]: 0.34 nM
- IL-10 secretion EC50, PBMC + RPMI-8226 cells (CBA) [7]: 0.3 nM
- TNF-α secretion EC50, PBMC + RPMI-8226 cells (CBA) [7]: 0.52 nM
